# From patent US20220064281A1 (Ablynx, published 2022)
# B1: F027500069 (VHH)
# chain: DVQLVESGGGVVQPGGSLRLSCTASGFTFSTADMGWFRQAPGKGREFVARISGIDGTTYYDEPVKGRFTISRDNSKNTVYLQMNSLRPEDTALYYCRSPRYADQWSAYDYWGQGTLVTVSSGGGGSGGGSEVQLVESGGGVVQPGGSLRLSCAASGRIFSLPASGNIFNLLTIAWYRQAPGKQRELVATIESGSRTNYADSVKGRFTISRDNSKKTVYLQMNSLRPEDTALYYCQTSGSGSPNFWGQGTLVTVSSGGGGSGGGSEVQLVESGGGVVQPGGSLRLSCAASGFTFRSFGMSWVRQAPGKGPEWVSSISGSGSDTLYADSVKGRFTISRDNSKNTLYLQMNSLRPEDTALYYCTIGGSLSRSSQGTLVTVSSGGGGSGGGSEVQLVESGGGVVQPGGSLRLSCAASGRTLSSYAMGWFRQAPGKEREFVARISQGGTAIYYADSVKGRFTISRDNSKNTVYLQMNSLRPEDTALYYCAKDPSPYYRGSAYLLSGSYDSWGQGTLVKVSSA
# notes: produced in Pichia pastoris; also called F02750069; ISVD construct F027500069
# Legend:
# human membrane TNFα [1] = target: T1, human membrane TNFα (human, UniProt P01375 1-233); test: flow cytometry, human membrane TNFα expressing HEK293H cells, fixed cells, 24 h at room temperature
# T1 construct: whole, on cells; also called membrane expressed TNFα
# T1 sequence (P01375 whole entry): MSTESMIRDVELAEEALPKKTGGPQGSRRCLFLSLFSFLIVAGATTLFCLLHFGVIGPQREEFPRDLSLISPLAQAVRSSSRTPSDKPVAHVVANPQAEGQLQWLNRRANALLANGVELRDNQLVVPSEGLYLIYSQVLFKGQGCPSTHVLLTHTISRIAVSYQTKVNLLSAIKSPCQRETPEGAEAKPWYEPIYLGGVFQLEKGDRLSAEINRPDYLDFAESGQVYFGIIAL
# Experimental: (§1) Briefly, cells were seeded at a density of 1×10⁴ cells/well and incubated with a dilution series of F027500069 starting from 100 nM up to 0.5 pM, for 1 hour at 4° C. In parallel, cells were fixed with 4% paraformaldehyde and 0.1% Glutaraldehyde in PBS, before seeding (to increase detection of membrane bound TNFα) and incubated with a dilution series of ISVD for 1 hour at 4° C. or for 24 hours at room temperature. Cells were washed 3 times and subsequently incubated with an anti-VHH mAb for 30 min at 4° C., washed again, and incubated for 30 min at 4° C. with a goat anti-mouse PE labelled antibody. Samples were washed and resuspended in FACS Buffer (D-PBS with 10% FBS and 0.05% sodium azide supplemented with 5 nM TOPRO3). Cell suspensions were then analysed on an iQuescreener. EC50 values were calculated using GraphPad Prism.
# cyno TNFα [2] = target: T2, cyno TNFα (cynomolgus monkey, UniProt P79337 77-233); test: Gyrolab in-solution affinity, 24 h incubation
# T2 construct: also called cynomolgus monkey TNFα
# T2 sequence (P79337 77-233 limits assumed): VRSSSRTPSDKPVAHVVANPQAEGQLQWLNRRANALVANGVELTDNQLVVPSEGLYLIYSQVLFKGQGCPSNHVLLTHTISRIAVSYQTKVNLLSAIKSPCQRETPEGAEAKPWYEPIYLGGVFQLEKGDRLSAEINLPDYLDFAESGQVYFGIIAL
# Source text: (§2) Biotinylated human TNFα/IL-23/serum albumin was captured in the microstructures of a Gyrolab Bioaffy 1000 CD, which contains columns of beads and is used as a molecular probe to capture free F027500069 from the equilibrated solution. The mixture of TNFα/IL-23/serum albumin and F027500069 (containing free TNFα/IL-23/serum albumin, free F027500069 and TNFα/IL-23/serum albumin—F027500069 complexes) was allowed to flow through the beads, and a small percentage of free F027500069 was captured, which is proportional to the free ISVD concentration. A fluorescently labelled anti-VHH antibody was then injected to label any captured F027500069 and after rinsing away excess of fluorescent probe, the change in fluorescence was determined. Fitting of the dilution series was done using Gyrolab Analysis software, where KD⁻ and receptor-controlled curves were analyzed to determine the KD value.
# cyno IL-23 [3] = target: T3, cyno IL-23 (cynomolgus monkey); test: Gyrolab in-solution affinity, 24 h incubation
# T3 construct: also called recombinant IL-23 from cynomolgus monkey
# Source text: as §2
# human TNFα [4] = target: T4, human TNFα (human, UniProt P01375 77-233); test: Gyrolab in-solution affinity, 24 h incubation
# T4 construct: Biotinylated human TNFα served as capture probe in the Gyrolab assay; also called hTNFα; Tumor Necrosis Factor alpha
# T4 sequence (P01375 77-233 limits assumed): as the sequence (P79337 77-233 limits assumed) above, with V37L, T44R, N72T, L138R counted along it
# Source text: as §2
# cyno TNFα [5] = target: T2, cyno TNFα; test: cell-based or functional assay
# human TNFα [6] = target: T4, human TNFα; test: cell-based or functional assay
# human FASL = target: T5, human FASL (human, UniProt P48023 134-281, limits assumed); test: SPR, target immobilized by amine coupling, F027500069 injected
# T5 construct: also called huFASL
# T5 sequence (looked up): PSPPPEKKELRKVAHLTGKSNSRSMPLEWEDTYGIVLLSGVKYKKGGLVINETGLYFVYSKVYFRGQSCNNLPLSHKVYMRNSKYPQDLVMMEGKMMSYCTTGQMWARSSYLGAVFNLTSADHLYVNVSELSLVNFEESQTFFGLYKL
# Experimental: (§3) Absence of binding to TNFα and IL-23 related human cytokines was assessed via SPR. hIL-12 was tested, as it shares the p40 subunit with IL-23. TNF superfamily members human FASL, TNFβ, LIGHT, TL-1A, RANKL were tested as related cytokines for TNFα.
# (§4) Next, 1 μM of F027500069 was injected for 2 minutes and allowed to dissociate for 900s at a flow rate of 45 μL/min. As running buffer 1×HBS-EP+ pH7.4 was used. As positive controls, 0.2 μM α-huIL-12 Ab and 0.5 μM α-huFASL Ab, 0.5 μM α-huTNFβ Ab, 0.5 μM α-huLIGHT Ab, 0.5 μM α-huTL-1A Ab and 0.5 μM α-huRANKL VHH were injected. Interaction between F027500069 and the positive controls with the immobilized targets was measured by detection of increases in […] which occurs as a result of mass changes on the chip upon binding.
# human TNFβ = target: T6, human TNFβ (human, UniProt P01374 35-205); test: as above
# T6 construct: also called huTNFβ
# T6 sequence (looked up): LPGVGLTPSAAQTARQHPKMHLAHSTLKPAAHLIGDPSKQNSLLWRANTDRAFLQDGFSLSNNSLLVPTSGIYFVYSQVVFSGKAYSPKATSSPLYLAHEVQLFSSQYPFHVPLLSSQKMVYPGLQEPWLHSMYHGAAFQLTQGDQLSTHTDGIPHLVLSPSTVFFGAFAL
# Experimental: as §3, §4
# human IL-12 = target: T7, human IL-12 (human, UniProt P29459 23-219; P29460 23-328); test: as above
# T7 construct: also called hIL-12
# T7 sequence (looked up) 1: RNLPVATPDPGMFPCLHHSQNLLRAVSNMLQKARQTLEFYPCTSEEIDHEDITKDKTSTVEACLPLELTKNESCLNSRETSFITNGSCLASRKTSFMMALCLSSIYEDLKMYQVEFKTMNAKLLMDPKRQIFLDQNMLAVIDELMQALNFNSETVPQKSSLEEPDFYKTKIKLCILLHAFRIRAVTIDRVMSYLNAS
# T7 sequence (looked up) 2: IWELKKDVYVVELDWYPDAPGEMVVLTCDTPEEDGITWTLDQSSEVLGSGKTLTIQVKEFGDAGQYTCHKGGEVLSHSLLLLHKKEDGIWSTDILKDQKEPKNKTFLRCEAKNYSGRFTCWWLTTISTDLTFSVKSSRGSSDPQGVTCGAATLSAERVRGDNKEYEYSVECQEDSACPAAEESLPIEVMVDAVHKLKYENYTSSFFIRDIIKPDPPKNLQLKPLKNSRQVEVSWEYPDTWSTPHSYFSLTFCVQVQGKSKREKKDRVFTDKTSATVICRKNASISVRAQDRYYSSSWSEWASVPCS
# Experimental: as §3, §4
# human RANKL = target: T8, human RANKL (human, UniProt O14788 140-317, limits assumed); test: as above
# T8 construct: also called huRANKL
# T8 sequence (looked up): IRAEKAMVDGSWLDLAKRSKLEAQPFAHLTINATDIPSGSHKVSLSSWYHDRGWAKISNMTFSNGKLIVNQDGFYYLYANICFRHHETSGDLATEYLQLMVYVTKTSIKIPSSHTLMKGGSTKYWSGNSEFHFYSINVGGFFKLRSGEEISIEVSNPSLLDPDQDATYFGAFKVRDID
# Experimental: as §3, §4
# human LIGHT = target: T9, human LIGHT (human, UniProt O43557 74-240, limits assumed); test: as above
# T9 construct: also called huLIGHT
# T9 sequence (O43557 74-240 limits assumed): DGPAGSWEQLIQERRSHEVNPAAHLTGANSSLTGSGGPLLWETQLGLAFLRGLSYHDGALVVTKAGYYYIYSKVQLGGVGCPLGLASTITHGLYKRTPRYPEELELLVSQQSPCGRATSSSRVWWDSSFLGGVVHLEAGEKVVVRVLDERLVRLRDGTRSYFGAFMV
# Experimental: as §3, §4
# human TL-1A = target: T10, human TL-1A (human, UniProt O95150 72-251); test: as above
# T10 construct: also called huTL-1A
# T10 sequence (looked up): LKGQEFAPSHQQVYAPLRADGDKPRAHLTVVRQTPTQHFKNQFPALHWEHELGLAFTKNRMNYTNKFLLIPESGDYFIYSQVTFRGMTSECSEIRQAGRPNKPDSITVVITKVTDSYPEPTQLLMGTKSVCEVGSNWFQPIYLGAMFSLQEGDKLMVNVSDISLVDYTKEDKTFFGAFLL
# Experimental: as §3, §4
# cyno TNFα [7] = target: T2, cyno TNFα; test: Gyrolab in-solution affinity, 48 h incubation
# Source text: as §2
# cyno IL-23 [8] = target: T3, cyno IL-23; test: Gyrolab in-solution affinity, 48 h incubation
# Source text: as §2
# human TNFα [9] = target: T4, human TNFα; test: Gyrolab in-solution affinity, 48 h incubation
# Source text: as §2
# human membrane TNFα [10] = target: T1, human membrane TNFα; test: flow cytometry, human membrane TNFα expressing HEK293H cells, fixed cells
# Experimental: as §1
# cyno IL-23 [11] = target: T3, cyno IL-23; test: cell-based or functional assay
# human serum albumin = target: T11, human serum albumin (human, UniProt P02768 25-609); test: Gyrolab in-solution affinity, 2 h incubation
# T11 construct: also called HSA; SA (human)
# T11 sequence (P02768 25-609 limits assumed): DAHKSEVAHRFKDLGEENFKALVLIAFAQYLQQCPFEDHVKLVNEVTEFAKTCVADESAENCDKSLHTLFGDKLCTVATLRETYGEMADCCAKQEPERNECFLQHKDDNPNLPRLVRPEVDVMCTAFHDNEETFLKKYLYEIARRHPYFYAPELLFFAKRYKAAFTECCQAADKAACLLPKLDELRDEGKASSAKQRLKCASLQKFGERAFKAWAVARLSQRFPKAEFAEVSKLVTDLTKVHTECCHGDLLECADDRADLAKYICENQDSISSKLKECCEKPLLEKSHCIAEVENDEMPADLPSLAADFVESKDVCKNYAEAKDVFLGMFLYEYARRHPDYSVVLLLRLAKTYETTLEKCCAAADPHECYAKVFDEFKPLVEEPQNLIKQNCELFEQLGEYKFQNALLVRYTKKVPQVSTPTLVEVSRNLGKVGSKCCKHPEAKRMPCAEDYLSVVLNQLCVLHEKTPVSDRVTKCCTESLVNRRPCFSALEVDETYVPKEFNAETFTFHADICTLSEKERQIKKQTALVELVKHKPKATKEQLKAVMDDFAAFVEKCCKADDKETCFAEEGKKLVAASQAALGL
# Source text: as §2
# cyno serum albumin = target: T12, cyno serum albumin (cynomolgus monkey, UniProt A2V9Z4 25-608); test: Gyrolab in-solution affinity, 2 h incubation
# T12 construct: also called SA (cynomolgus monkey)
# T12 sequence (A2V9Z4 25-608 limits assumed): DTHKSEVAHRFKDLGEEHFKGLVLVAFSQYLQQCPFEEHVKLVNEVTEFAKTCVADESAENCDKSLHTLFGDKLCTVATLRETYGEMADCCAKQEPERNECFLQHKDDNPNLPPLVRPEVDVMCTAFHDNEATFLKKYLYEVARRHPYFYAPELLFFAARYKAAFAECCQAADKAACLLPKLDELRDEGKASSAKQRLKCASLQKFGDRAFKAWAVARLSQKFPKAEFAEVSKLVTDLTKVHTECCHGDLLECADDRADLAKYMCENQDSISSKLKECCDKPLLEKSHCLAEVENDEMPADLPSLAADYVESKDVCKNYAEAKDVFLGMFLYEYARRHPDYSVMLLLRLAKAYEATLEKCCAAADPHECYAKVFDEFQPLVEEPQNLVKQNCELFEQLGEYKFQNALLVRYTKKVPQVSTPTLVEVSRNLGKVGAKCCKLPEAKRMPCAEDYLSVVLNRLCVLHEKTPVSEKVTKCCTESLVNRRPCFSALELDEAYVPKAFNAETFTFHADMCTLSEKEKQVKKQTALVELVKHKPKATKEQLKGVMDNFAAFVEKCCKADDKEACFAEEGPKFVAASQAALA
# Source text: as §2
# human membrane TNFα [12] = target: T1, human membrane TNFα; test: flow cytometry, human membrane TNFα expressing HEK293H cells, viable cells, 1 h at 4 °C
# Experimental: as §1
# human membrane TNFα [13] = target: T1, human membrane TNFα; test: flow cytometry, human membrane TNFα expressing HEK293H cells, fixed cells, 1 h at 4 °C
# Experimental: as §1
# OX40L = target: T13, OX40L (human, UniProt P23510); test: SPR (ProteOn XPR36): 100 nM F027500069 captured on immobilized HSA, then 100 nM hOX40L injected for 2 min, alone or mixed with 100 nM IL-23 or TNFα, followed by 600 s dissociation
# T13 construct: soluble recombinant protein; also called hOX40L
# T13 sequence (ligand chain, looked up): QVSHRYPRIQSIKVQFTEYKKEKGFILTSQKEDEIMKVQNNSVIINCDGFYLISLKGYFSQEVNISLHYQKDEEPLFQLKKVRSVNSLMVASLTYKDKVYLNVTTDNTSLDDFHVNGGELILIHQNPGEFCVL
# Experimental: A ProteOn XPR36 instalment was used to determine whether F027500069 can bind simultaneously to hTNFα and hIL-23. To this end HSA was immobilized on a GLC ProteOn Sensor chip via amine coupling. 100 nM of F027500069 was injected for 2 min at 10 μl/min over the HSA surface in order to capture the ISVD via the ALB23002 building block. Subsequently either 100 nM of hIL-23, hTNFα or hOX40L were injected or mixtures of 100 nM IL-23+100 nM TNFα, 100 nM IL-23+100 nM OX40L or 100 nM TNFα+[…], at a flow rate of 10 μl/min for 2 min followed by a subsequent 600 seconds dissociation step. The HSA surfaces were regenerated with a 2-minute injection of HCl (100 mM) at 45 μl/min.
binder,measurement,setting,value
B1,EC50,human membrane TNFα [1],0.122 nM
same,Kd,cyno TNFα [2],0.0275 nM
same,Kd,cyno IL-23 [3],0.0335 nM
same,Kd,human TNFα [4],0.00323 nM
same,"NFkB assay IC50 (M); Glo Response HEK293_NFkB-NLucP reporter assay, 70 pM cyno TNFα",cyno TNFα [5],1.28e-10 M
same,"NFkB assay IC50 (M); Glo Response HEK293_NFkB-NLucP reporter assay, 25 pM human TNFα",human TNFα [6],3.88e-11 M
same,binding result,human FASL,no binding (tested: 1 µM)
same,binding result,human TNFβ,no binding (tested: 1 µM)
same,binding result,human IL-12,no binding (tested: 1 µM)
same,binding result,human RANKL,no binding (tested: 1 µM)
same,binding result,human LIGHT,no binding (tested: 1 µM)
same,binding result,human TL-1A,no binding (tested: 1 µM)
same,Kd,cyno TNFα [7],0.0186 nM
same,Kd,cyno IL-23 [8],0.0512 nM
same,Kd,human TNFα [9],0.00339 nM
same,fold improvement of the EC50 (24 hours against 1 hour incubation),human membrane TNFα [10],6.6 fold
same,"IL-23 reporter assay IC50 (M); Glo Response HEK293_human IL-23R/IL-12Rb1-Luc2P, 40 pM cyno IL-23",cyno IL-23 [11],3.23e-10 M
same,"Mouse splenocyte assay IC50 (M); IL-23-induced mIL-22 production, 36 pM cyno IL-23",cyno IL-23 [11],3.07e-11 M
same,Kd,human serum albumin,5.9 nM
same,Kd,cyno serum albumin,10.8 nM
same,EC50,human membrane TNFα [12],0.693 nM
same,EC50,human membrane TNFα [13],0.811 nM
same,binding result,OX40L,no binding (tested: 100 nM)
